Measurements taken from patent US20260207798A1, “CYCLIC PEPTIDES AS PET IMAGING AGENTS OF GRANZYME B” (priority 2022, published 2026).
Numbered stars: 1 amine (or outer) side, 2 acyl side, 3 side chain; on linkers, the order of the positions; unused ones are H or OH. Bridge positions count the residues as written; N and C are the ends. Square brackets hold non-standard residues; d marks the D form. Peptide text beside a SMILES is read from it. I, II: the chains in the order shown. * marks the point of attachment. X3 = CC(C)(C)OC(=O)NCCC(=O)N(CCOCCOCCOCCOCCC(=O)[*:1])CCOCCOCCOCCOCCC(=O)[*:2]; NOTA‑1 = 1,4,7-triazacyclononane-N,N',N''-triacetic acid phenyl thiourea; Pro(cis-4-Ph) = O=C(O)[C@@H]1C[C@H](c2ccccc2)CN1; Peg4 = polyethylene glycol with 4 units (PEG4); Trp(5-F) = N[C@@H](Cc1c[nH]c2ccc(F)cc12)C(=O)O; Pro(trans-4-F) = O=C(O)[C@@H]1C[C@@H](F)CN1; Phe(4-F) = N[C@@H](Cc1ccc(F)cc1)C(=O)O; Phe(4-Me) = Cc1ccc(C[C@H](N)C(=O)O)cc1; Tic = O=C(O)[C@@H]1Cc2ccccc2CN1; Pip = O=C(O)[C@@H]1CCCCN1; Aze = O=C(O)[C@@H]1CCN1; Propionyl = CCC(=O)*

B1: Compound 54a (peptide)
peptide: {CH2CO}-[Phe(4-F)]NFEDQSPDTWQPCG-NH2
modifications: thioether N-14
SMILES: C[C@@H](O)[C@@H]1NC(=O)[C@H](CC(=O)O)NC(=O)[C@@H]2CCCN2C(=O)[C@H](CO)NC(=O)[C@H](CCC(N)=O)NC(=O)[C@H](CC(=O)O)NC(=O)[C@H](CCC(=O)O)NC(=O)[C@H](Cc2ccccc2)NC(=O)[C@H](CC(N)=O)NC(=O)[C@H](Cc2ccc(F)cc2)NC(=O)CSC[C@@H](C(=O)NCC(N)=O)NC(=O)[C@@H]2CCCN2C(=O)[C@H](CCC(N)=O)NC(=O)[C@H](Cc2c[nH]c3ccccc23)NC1=O
B2: Compound 61a (peptide)
peptide: {CH2CO}-FNFEDQAPDTWQPCGGK-NH2
modifications: thioether N-14
SMILES: C[C@@H]1NC(=O)[C@H](CCC(N)=O)NC(=O)[C@H](CC(=O)O)NC(=O)[C@H](CCC(=O)O)NC(=O)[C@H](Cc2ccccc2)NC(=O)[C@H](CC(N)=O)NC(=O)[C@H](Cc2ccccc2)NC(=O)CSC[C@@H](C(=O)NCC(=O)NCC(=O)N[C@@H](CCCCN)C(N)=O)NC(=O)[C@@H]2CCCN2C(=O)[C@H](CCC(N)=O)NC(=O)[C@H](Cc2c[nH]c3ccccc23)NC(=O)[C@H]([C@@H](C)O)NC(=O)[C@H](CC(=O)O)NC(=O)[C@@H]2CCCN2C1=O
B3: Compound 23a (peptide)
peptide: {CH2CO}-FNFEDQSVDTWQPCGGK-NH2
modifications: thioether N-14
SMILES: CC(C)[C@@H]1NC(=O)[C@H](CO)NC(=O)[C@H](CCC(N)=O)NC(=O)[C@H](CC(=O)O)NC(=O)[C@H](CCC(=O)O)NC(=O)[C@H](Cc2ccccc2)NC(=O)[C@H](CC(N)=O)NC(=O)[C@H](Cc2ccccc2)NC(=O)CSC[C@@H](C(=O)NCC(=O)NCC(=O)N[C@@H](CCCCN)C(N)=O)NC(=O)[C@@H]2CCCN2C(=O)[C@H](CCC(N)=O)NC(=O)[C@H](Cc2c[nH]c3ccccc23)NC(=O)[C@H]([C@@H](C)O)NC(=O)[C@H](CC(=O)O)NC1=O
B4: Compound 85a (peptide)
peptide: {CH2CO}-FNFEDQSAITWQPCG-NH2
modifications: thioether N-14
SMILES: CC[C@H](C)[C@@H]1NC(=O)[C@H](C)NC(=O)[C@H](CO)NC(=O)[C@H](CCC(N)=O)NC(=O)[C@H](CC(=O)O)NC(=O)[C@H](CCC(=O)O)NC(=O)[C@H](Cc2ccccc2)NC(=O)[C@H](CC(N)=O)NC(=O)[C@H](Cc2ccccc2)NC(=O)CSC[C@@H](C(=O)NCC(N)=O)NC(=O)[C@@H]2CCCN2C(=O)[C@H](CCC(N)=O)NC(=O)[C@H](Cc2c[nH]c3ccccc23)NC(=O)[C@H]([C@@H](C)O)NC1=O
B5: Compound 64a (peptide)
peptide: {CH2CO}-FNFEDQS[Tic]DTWQPCG-NH2
modifications: thioether N-14
SMILES: C[C@@H](O)[C@@H]1NC(=O)[C@H](CC(=O)O)NC(=O)[C@@H]2Cc3ccccc3CN2C(=O)[C@H](CO)NC(=O)[C@H](CCC(N)=O)NC(=O)[C@H](CC(=O)O)NC(=O)[C@H](CCC(=O)O)NC(=O)[C@H](Cc2ccccc2)NC(=O)[C@H](CC(N)=O)NC(=O)[C@H](Cc2ccccc2)NC(=O)CSC[C@@H](C(=O)NCC(N)=O)NC(=O)[C@@H]2CCCN2C(=O)[C@H](CCC(N)=O)NC(=O)[C@H](Cc2c[nH]c3ccccc23)NC1=O

Target: human Granzyme B (hGranzyme B) (Homo sapiens, UniProt P10144)
Assay: Surface plasmon resonance (SPR) binding kinetics to hGranzyme B
Details: 25° C., 1:1 binding model, KD=kd/ka; read-out: Granzyme B SPR Kd
Description: The kinetics of test peptide binding to human Granzyme B (hGranzyme B) was determined by SPR. All experiments were performed at 25° C. using the Biacore 8k+ instrument (Cytiva, Marlborough, MA). The Biacore 8k+ Insight Evaluation Software Version 3.0 was used to fit the data with a 1:1 binding model to determine the association rate constant ka (M^−1s^−1, where “M” ~equals molar and “s” ~equals seconds) and the dissociation rate constant kd (s^−1). These rate constants were used to calculate the equilibrium dissociation constant. KD (M)=kd/ka.
To measure the binding kinetics of peptides of interest, surfaces were prepared by a capture method to a Series S Streptavidin (SA) chip using a 1×HBS-EP+ running buffer (Cytiva). hGranzyme B was diluted to 10 μg/mL in IX HBS-EP+ and flowed over spot 2 of each flow cell on the chip at a flow rate of 10 ul/min for 20 s to achieve a level of capture of ~1100 RU. An unmodified spot 1 of each flow cell was used as a matrix binding control or reference surface. Binding kinetics were measured using single cycle kinetics at 25° C. by injecting 5 concentrations with 3-fold serial dilutions of test peptides from 0.01 μM to 1 μM. Compound dilutions were performed manually in a running buffer containing 1×HBS-EP+(Cytiva), and a final concentration of 2% DMSO. The interaction analyses over hGranzyme B, were performed using a 120 s association time and a 900 s dissociation time. All experiments were conducted at a flow rate of 50 μL/min with a data collection rate of 10 Hz.
Peptide dilution series included 2 zero concentration points (no compound) which were averaged and subtracted from the peptide concentration injection as DMSO control responses. Binding data acquired from the reference surface (matrix binding control) were subtracted from the binding data for hGranzyme B surface on the chip to determine specific binding. Next, the association phase data were solvent corrected to account for any signal fluctuation throughout the experiment due to subtle DMSO concentration differences. Corrected response data were analyzed using the Biacore 8k+ Evaluation Software Version 3.0 according to the manufacturer. SPR data for representative compounds of the disclosure are found in Table 8.

For `C[C@@H]1NC(=O)[C@H](CO)NC(=O)[C@H](CCC(N)=O)NC(=O)[C@H](CC(=O)O)NC(=O)[C@H](CCC(=O)O)NC(=O)[C@H](Cc2ccccc2)NC(=O)[C@H](CC(N)=O)NC(=O)[C@H](Cc2ccccc2)NC(=O)CSC[C@@H](C(=O)NCC(=O)NCC(=O)N[C@@H](CCCCNC(=O)CCOCCOCCOCCOCCN(CCOCCOCCOCCOCCC(=O)NCCCC[C@H](NC(=O)CNC(=O)CNC(=O)[C@@H]2CSCC(=O)N[C@@H](Cc3ccccc3)C(=O)N[C@@H](CC(N)=O)C(=O)N[C@@H](Cc3ccccc3)C(=O)N[C@@H](CCC(=O)O)C(=O)N[C@@H](CC(=O)O)C(=O)N[C@@H](CCC(N)=O)C(=O)N[C@@H](CO)C(=O)N[C@@H](C)C(=O)N[C@@H](CC(=O)O)C(=O)N[C@@H]([C@@H](C)O)C(=O)N[C@@H](Cc3c[nH]c4ccccc34)C(=O)N[C@@H](CCC(N)=O)C(=O)N3CCC[C@H]3C(=O)N2)C(N)=O)C(=O)CCNC(=O)OC(C)(C)C)C(N)=O)NC(=O)[C@@H]2CCCN2C(=O)[C@H](CCC(N)=O)NC(=O)[C@H](Cc2c[nH]c3ccccc23)NC(=O)[C@H]([C@@H](C)O)NC(=O)[C@H](CC(=O)O)NC1=O` [Compound 7a, (*F.N.F.E.D.Q.S.A.D.T.W.Q.P.*C.G.G.K.NH2)-bis(PEG4)-β-Ala(Boc)-(*F.N.F.E.D.Q.S.A.D.T.W.Q.P.*C.G.G.K.NH2)] (I: {CH2CO}-FNFEDQSADTWQPCGGK-NH2 / II: {CH2CO}-FNFEDQSADTWQPCGGK-NH2; linker I:17-II:17 via X3; thioether I:N-I:14, II:N-II:14), the Kd was < 0.1 nM.

Target: T1, human Granzyme B (human, UniProt P10144 21-247)
T1 construct: Captured on a Series S Streptavidin chip for SPR; also called hGranzyme B; GzmB
Assay: SPR, Biacore 8k+, hGranzyme B captured on SA chip, single cycle kinetics, 1:1 model
Details: not given

T1 sequence (P10144 21-247 limits assumed): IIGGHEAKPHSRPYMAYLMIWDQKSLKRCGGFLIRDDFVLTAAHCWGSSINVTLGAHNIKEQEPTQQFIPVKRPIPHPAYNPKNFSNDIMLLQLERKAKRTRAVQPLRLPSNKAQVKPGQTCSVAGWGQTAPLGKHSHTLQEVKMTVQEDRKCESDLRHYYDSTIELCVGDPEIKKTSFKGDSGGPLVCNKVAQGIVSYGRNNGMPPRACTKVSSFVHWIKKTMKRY

Point of comparison: {CH2CO}-FNFEDQSPDTWQ[Pro(trans-4-F)]CG-NH2 (thioether N-14) [Compound 49a], Kd 4.5 nM. Against it:
- {CH2CO}-FNFEDQS[Pip]DTWQPCG-NH2 (thioether N-14) [Compound 76a] — 6.4-fold higher, 28.6 nM
- {CH2CO}-FNFEDQSPDTWQPCGGK(NOTA‑1)-NH2 (thioether N-14) [Compound 13a] — within 1.5-fold, 4.4 nM
- {CH2CO}-FNFEDQSPDTWQ[Pro(cis-4-Ph)]CG-NH2 (thioether N-14) [Compound 50a] — within 1.5-fold, 4.6 nM
- B1 — within 1.5-fold, 4.9 nM
- {CH2CO}-FNFEDQSPDT[Trp(5-F)]QPCG-NH2 (thioether N-14) [Compound 47a] — within 1.5-fold, 4.1 nM
- {CH2CO}-FNFEDQS[Aze]DTWQPCG-NH2 (thioether N-14) [Compound 75a] — 6.3-fold higher, 28.3 nM
- {CH2CO}-FNFEDQSPDTWQ[Pip]CG-NH2 (thioether N-14, also called 71aa) [Compound 71a] — 4.4-fold higher, 19.6 nM
- {CH2CO}-FNFEDQSADTWQPCGGK(RESCA‑1)-NH2 (thioether N-14) [Compound 3a] — 3.4-fold higher, 15.1 nM
- {CH2CO}-FNFEDQSADTWQPCGGK(AF647)-NH2 (thioether N-14) [Compound 9a] — 2.9-fold higher, 13 nM
- {CH2CO}-FNFEDQSADTWQPCGGK(Propionyl)-NH2 (thioether N-14) [Compound 4a] — 2.6-fold higher, 11.7 nM
- B2 — within 1.5-fold, 6.3 nM
- B3 — 6.1-fold higher, 27.5 nM
- {CH2CO}-FNFEDQSADTWQPCGGK-NH2 (thioether N-14, also called 2b) [Compound 26a] — 3.4-fold higher, 15.4 nM
- {CH2CO}-FNFEDQSADTWQPCGGK(Peg4)-NH2 (thioether N-14) [Compound 16a] — 4.2-fold higher, 19 nM
- {CH2CO}-[Phe(4-Me)]NFEDQSPDTWQPCG-NH2 (thioether N-14) [Compound 43a] — within 1.5-fold, 3.1 nM
- B4 — 13-fold higher, 58.3 nM
- B5 — 1.8-fold higher, 8.1 nM
